Measurements as given in patent US20030229203.

Key:
MCP-2 = MCP-2 (UniProt P80075)
Eotaxin = Eotaxin (UniProt P51671)
MCP-1 = MCP-1 (UniProt P13500)
RANTES(1-68) = RANTES(1-68) (UniProt P13501)
IP-10 = IP-10 (UniProt P02778)
IP-10, sequence (P02778 whole entry, looked up): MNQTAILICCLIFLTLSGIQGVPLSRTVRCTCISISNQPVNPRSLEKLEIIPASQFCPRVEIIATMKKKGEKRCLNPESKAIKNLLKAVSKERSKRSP

MCP-2, sequence (P80075 24-99): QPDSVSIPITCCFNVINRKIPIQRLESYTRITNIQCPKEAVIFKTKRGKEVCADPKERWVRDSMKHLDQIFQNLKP
Eotaxin, sequence (P51671 24-97): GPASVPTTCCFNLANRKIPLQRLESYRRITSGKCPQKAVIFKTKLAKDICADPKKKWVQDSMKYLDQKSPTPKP
RANTES(1-68), sequence (P13501 24-91): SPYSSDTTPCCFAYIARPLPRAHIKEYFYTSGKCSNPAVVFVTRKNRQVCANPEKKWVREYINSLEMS
MCP-1, sequence (P13500 whole entry, looked up): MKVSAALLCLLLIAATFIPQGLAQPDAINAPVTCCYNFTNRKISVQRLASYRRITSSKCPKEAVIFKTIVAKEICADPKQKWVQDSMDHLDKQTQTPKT

## enzymatically active (E+) recombinant soluble human CD26 (sCD26)
MCP-2
  CD26 cleavage (ES-MS after overnight digestion with sCD26): Yes
Eotaxin
  CD26 cleavage (ES-MS after overnight digestion with sCD26): Yes
MCP-1
  CD26 cleavage (ES-MS after overnight digestion with sCD26): No
RANTES(1-68)
  hydrolysis of rhRANTES by sCD26 (ES-MS of cleavage products): 100 nM rhRANTES underwent partial to complete hydrolysis when incubated overnight at 37 °C with increasing amounts (25 to 250 (U) of sCD26
IP-10
  CD26 cleavage (ES-MS after overnight digestion with sCD26): Yes
